In patent US20180186871A1 (SINGAPORE HEALTH SERVICES PTE, published 2018):

Legend:
[1] = target: T1, human IL-11 (human, UniProt P20809 22-199); assay: ELISA binding signal
T1 construct: In the ELISAs this is recombinant human IL-11 coated on the plate (expressed in CHO cells as Fc-tagged and tag-free versions); In the fibroblast assays it is the IL-11 produced by human fibroblasts after TGFβ1 stimulation; also called recombinant human IL-11 (GenScript Cat. No. Z03108-1); interleukin 11
T1 sequence (looked up): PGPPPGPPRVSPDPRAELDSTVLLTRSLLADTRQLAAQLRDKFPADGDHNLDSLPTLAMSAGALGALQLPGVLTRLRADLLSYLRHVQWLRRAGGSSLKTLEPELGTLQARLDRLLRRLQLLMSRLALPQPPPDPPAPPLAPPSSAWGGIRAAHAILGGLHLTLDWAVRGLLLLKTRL

[2] = target: T1, human IL-11; assay: cell-based or functional assay
[3] = target: T1, human IL-11; assay: ELISA on coated recombinant human IL-11, scFv-Fc dilution series
[4] = target: T1, human IL-11; assay: indirect ELISA on plate-coated recombinant human IL-11 (1 µg/mL), detection with HRP anti-human IgG (Fc-specific), absorbance 450-570 nm
[5] = target: T1, human IL-11; assay: EC50 from the indirect ELISA titrations of FIGS. 28A-28F on plate-coated recombinant human IL-11 (five-parameter fit), ng/ml is the concentration unit of FIG. 28 and paragraph 502
[6] = target: T1, human IL-11; assay: EC50 by indirect ELISA on plate-coated recombinant human IL-11 (five-parameter fit); no titration curve of Yu33-B4 is drawn in FIGS. 28A-28F, ng/ml is the concentration unit of FIG. 28 and paragraph 502
[7] = target: T2, FLAG-tagged human IL-11 expressed at the cell surface (human, UniProt P20809 22-199); assay: flow cytometry of hybridoma subclone supernatants on cells transfected with pB1-IL11-hum.FL (FLAG-tagged human IL-11 at the cell surface), anti-mouse IgG detection; sheet says 'flow cytometry (Attunes)', legend says iQue
T2 construct: whole, on cells; also called IL-11 expressing HEK cells; target cells expressing human IL-11 at their surface; not shown: how the protein is held at
T2 sequence (looked up): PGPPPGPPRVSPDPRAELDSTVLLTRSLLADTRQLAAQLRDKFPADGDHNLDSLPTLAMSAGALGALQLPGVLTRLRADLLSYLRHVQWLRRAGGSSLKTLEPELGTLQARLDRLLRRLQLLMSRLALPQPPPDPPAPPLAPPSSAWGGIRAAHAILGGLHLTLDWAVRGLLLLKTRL

[8] = target: T1, human IL-11; assay: indirect ELISA on plate-coated recombinant human IL-11 (1 µg/mL), detection with HRP anti-human IgG (Fc-specific), absorbance 450-570 nm; remark: listed apart in the source

B1: YU100-G08 (scFv)
scFv: QVQLVQSGGGVVQPGRSLRLSCAASGFTFSSYGMHWVRQAPGKGLEWVAVISYDGSNKYYADSVKGRFTISRDNSKNTLYLQMNSLRAEDTAVYYCAKIGATDPLDYWGQGTLVTVSSGSASAPKLEEGEFSEARVQSALTQPRSVSGSPGQSVTLSCTGTSSDVGGYNYVSWYQHYPGKAPKLMIFDVNERSSGVPDRFSGSKSGNTASLTISGLQAEDEADYYCCSYAGRYTWMFGGGTKVTVL
notes: light chain-shuffled human anti-IL-11 clone
hIL11 - average signal [1]: 0.153
MMP2 production (ng/ml), TGFB1-stimulated human atrial fibroblasts, Experiment 1 (NEG 42.7, POS 70.2) [2]: 42.3 ng/mL
MMP2 production (ng/ml), TGFB1-stimulated human atrial fibroblasts, Experiment 2 (NEG 36.2, POS 62.3) [2]: 38 ng/mL
EC50 [3]: 0.028 µg/mL

B2: YU45-F2 (Fc fusion)
VH: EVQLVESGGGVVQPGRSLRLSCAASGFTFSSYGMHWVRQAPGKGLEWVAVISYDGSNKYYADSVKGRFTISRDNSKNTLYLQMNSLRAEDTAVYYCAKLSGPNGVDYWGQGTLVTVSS
VL: QPVLTQPRSVSGSPGQSVTISCTGTSSDVGGYNYVSWYQQHPGKAPKVMIYDVSKRPSGVPDRFSGSKSGNTASLTISGLQAEDEADYYCCSYAGSYTWVFGGGTKLTVL
notes: tested as scFv-Fc (human IgG1); also called #24
EC50 (read off the curve) [4]: ~0.004 µg/mL
EC50 [5]: 0.00424 µg/mL

B3: Yu45-G8 (Fc fusion, not shown: a dimerising Fc or GST; small tags and cut ends)
VH: EVQLVESGGGVVQPGRSLRLSCAASGFTFSSYGMHWVRQAPGKGLEWVAVISYDGSNKYYADSVKGRFTISRDNSKNTLYLQMNSLRAEDTAVYYCAKFARGVYLFDYWGQGTLVTVSS
VL: QSALTQPASVSGSPGQSITISCTGTSSDVGGYDYVSWYQQHPGTAPKLMISDVHNRPLGVSNRFSGSKSGNTASLTISGLQAEDEADYYCSSYTSSITWVFGGGTKLTVL
notes: also called YU45-G8/H6; #19
EC50 (read off the curve) [4]: ~0.006 µg/mL
EC50 [5]: 0.00629 µg/mL

B4: YU33-B4/YU45-G2/A3 (Fc fusion)
VH: EVQLVESGGGVVQPGRSLRLSCAASGFTFSSYGMHWVRQAPGKGLEWVAVISYDGSNKYYADSVKGRFTISRDNSKNTLYLQMNSLRAEDTAVYYCAKIGATDPLDYWGQGTLVTVSS
VL: QSALTQPASVSGSPGQSITISCTGTSSDVGGYNYVSWYQQHPGKAPKLMIYDVSNRPSGVSNRFSGSKSGNTASLTIFGLQAEDEADYYCSSYTSSSSWVFGGGTKLTVL
notes: tested as scFv-Fc (human IgG1)
EC50 [5]: 0.0142 µg/mL
EC50 [6]: 0.198 µg/mL

B5: YU46-D3 (Fc fusion, not shown: a dimerising Fc or GST; small tags and cut ends)
VH: EVQLLESGGGVVQPGRSLRLSCAASGFTFSSYAMHWVRQAPGKGLEWVAVISYDGSNKYYADSVKGRFTSSRDNSKNTLYLQMNSLRAEDTAVYYCARSGVLDYWGQGTLVTVSS
VL: QSALTQPASVSGSPGQSITISCTGTSSDVGNYKYVSWYQQHPGKAPKLMIYDVSNRPSGVSNRFSGSKSGNTASLTISGLQAEDEADYYCSSYTSSSTLVVFGGGTKLTVL
notes: tested as scFv-Fc (human IgG1); also called #56
EC50 [5]: 0.655 µg/mL

B6: YU100-H01 (scFv)
scFv: QVQLVQSGGGVVQPGRSLRLSCAASGFTFSSYAMHWVRQAPGKGLEWVAVISYDGSNKYYADSVKGRFTISRDNSKNTLYLQMNSLRAEDTAVYYCARIMGYDYGDYDVVDYWGQGTLVTVSSGSASAPKLEEGEFSEARVQSALTQPRSVSGSPGQSVTISCTGTSSDVGAYNYVSWYQQHPGKAPKLMIYDVSERPSGVPDRFSGSKSGNTASLTISGLQAEDEADYYCCSYAGSYTWVFGGGTKLTVL
notes: as for B1
hIL11 - average signal [1]: 0.43
MMP2 production (ng/ml), TGFB1-stimulated human atrial fibroblasts, Experiment 1 (NEG 42.7, POS 70.2) [2]: 48.3 ng/mL
MMP2 production (ng/ml), TGFB1-stimulated human atrial fibroblasts, Experiment 2 (NEG 36.2, POS 62.3) [2]: 42.2 ng/mL
EC50 [3]: 0.053 µg/mL

B7: YU100-F11 (scFv)
scFv: QVQLVESGGGVVQPGRSLRLSCAASGFTFSSYGMHWVRQAPGKGLEWVAVISYDGSNKYYADSVKGRFTISRDNSKNTLYLQMNSLRAEDTAVYYCAKIGATDPLDYWGQGTLVTVSSGSASAPKLEEGEFSEARVQSALTQPASVSGSPGQSITISCTGSSSDVAGYNYVSWYQQHPGKAPKLMIYDVTKRPSGVPDRFSGSKSGNTASLTISGLQAEDEADYYCCSYAGSYTWVFGGGTQLTVL
notes: as for B1
hIL11 - average signal [1]: 0.319
MMP2 production (ng/ml), TGFB1-stimulated human atrial fibroblasts, Experiment 1 (NEG 42.7, POS 70.2) [2]: 44.5 ng/mL
MMP2 production (ng/ml), TGFB1-stimulated human atrial fibroblasts, Experiment 2 (NEG 36.2, POS 62.3) [2]: 37.6 ng/mL
EC50 [3]: 0.027 µg/mL

B8: BSN-7D4 (antibody, V domains shown)
VH: EVQLQQSGPELVKPGASVKISCKASGYTFTDYNMDWVKQSQGKRLEWIGDINPNYGGTIYNQKFKGKATLTVDKSSSTAYMELRSLTSEDTTVYYCTRGELGHWYFDVWGTGTTVTVSS
VL: DIVLTQSPPSLTVSLGQRATISCRASKSVSASGYSYMHWYQQKPGQPPKLLIYLTSNLESGVPARFSGSGSGTDFTLNIHPVEEEDAATYYCQHSWDLPPTFGGGTKLEIK
% positive (anti-FLAG positive control = 100%) [7]: 176%

B9: Yu33-H3 (IgG) (antibody, V domains shown)
VH: EVQLVESGGGFVKPGGSLSISCAASGFTFSGAYMNWVRQAPGKGLEWVAVISYDGSNKYYADSVKGRFTISRDNSKNTLYLQMNSLRAEDTAVYYCARDLYAFDIWGQGTMVTVSS
VL: LPVLTQPHSVSESPGRTVTISCTRNTGNIASNRVQWYQQRPASAPTVVIYDNHQRPSGVPDRFSGSIDTSPNSAYLTISGLKTEDEADYYCQSYDYSSVIFGGGTQLTVL
notes: also called YU33-B3/H3; #2
binding result [8]: binds

B10: BSN-2G6 (antibody, V domains shown)
VH: QVQLQESGPELVKPGASVKIPCKASGYTFTDYNMDWVKQSHGKSLEWIGNINPDNGGTIYNQKFKGKATLTVDKSSSTAYMELRSLTSEDTAVYFCAREGPYGYTWFAYWGQGTLDTVSA
VL: DILLTQSPAILSVSPGERVSFSCRASQSIGTSIHWYQQRTNGSPRLLIKYASESISGIPSRFSGSGSGTDFTLSINSVESEDIADYYCQQSNSWPLTFGAGTKLELK
notes: mouse monoclonal anti-human IL-11 antibody from a hybridoma; also called A5
% positive (anti-FLAG positive control = 100%) [7]: 23%

B11: YU46-G8 (Fc fusion, not shown: a dimerising Fc or GST; small tags and cut ends)
VH: EVQLVESGGGVVQPGRSLRLSCAASGFSLGSYGMHWVRQAPGKGLEWVAVISYDGSNKYYADSVKGRFTISRDNSKNTLYLQMNSLRAEDTAVYYCAKGSYYFDYWGQGTLVTVSS
VL: DIQMTQSPSSLSASVGDRVTITCRASQGSSSYLAWYQQKPGKAPKLLIYAASSLQSGVPSRFSGSGSGTDFTLTISSLQPEDFATYYCQQSYSTPLYTFGQGTKLEIK
notes: tested as scFv-Fc (human IgG1); also called #54
EC50 [5]: 0.0323 µg/mL

B12: BSN-2E1 (antibody, V domains shown)
VH: QVQLQESGPELVKPGASVKIPCKASGYTFTDYNMDWVKQSHGKSLEWIGDINPHNGGPIYNQKFTGKATLTVDKSSSTAYMELRSLTSEDTAVYYCARGELGHWYFDVWGTGTTVTVSS
VL: NIVMTQSPKSMSMSVGERVTLTCKASENVVTYVSWYQQKPEQSPKLLIYGASNRYTGVPDRFTGSGSATDFTLTISSVQAEDLADYHCGQGYSYPYTFGGGTKLEIK
notes: mouse monoclonal anti-human IL-11 antibody from a hybridoma; also called A3
% positive (anti-FLAG positive control = 100%) [7]: 164%

B13: BSN-8H11 (antibody, V domains shown)
VH: EVQLQQSGPELVKPGASVKIPCKASGYTFTDYNIDWVKQSHGKSLEWIGDINPNYGGTLYNQKFKGKATLTVDKSSSTAYMELRSLTSEDTAVYYCARGELGHWYFDVWGTGTTVTVSS
VL: DIVLTQSPASLAVSLGQRATISCRASKSVSTSDYSYMHWYQQKPGHPPKLLIYLASNLESGVPARFSGSGSGTDFTLNIHPVEEEDAATYFCQHSRDLPPTFGGGTKLEIK
% positive (anti-FLAG positive control = 100%) [7]: 190%

B14: BSN-3C6 (antibody, V domains shown)
VH: EVQLQQSGPELVKPGASVKIPCKASGYTFTDYNMDWVKQSHGKSLEWIGDINPHNGGPIYNQKFTGKATLTVDKSSSTAYMELRSLTSEDTAVYYCARGELGHWYFDVWGTGTTVTVSS
VL: DIVLTQSPASLAVSLGQRATISCRASKSVSTSGYSYIHWYQQKPGQPPKLLIYLASNLDSGVPARFSGSGSGTDFTLNIHPVEEEDAATYYCQHSRDLPPTFGGGTKLEIK
% positive (anti-FLAG positive control = 100%) [7]: 176%

B15: BSN-1H2 (antibody, V domains shown)
VH: QAQLQQSGAELARPGASVKLSCKASGYTFTSYGITWVKQRTGQGLEWIGDIYPRSGNIYYNENFKGEATLTADKSSSTAYMQLSRLTSEDSAVYFCARSGWEGWFAYWGQGTLVTVSV
VL: DIVMTQSHKFMSTSVGDRVNITCKASQDVGSAVVWYQQKPGQSPKVLIYWASTRHTGVPDRFTGSGSGTDFTLTISNVQSEDLADYFCQQYSSYRTFGGGTKLEIK
% positive (anti-FLAG positive control = 100%) [7]: 157%

B16: BSN-5B8 (antibody, V domains shown)
VH: QVQLQQSGAELARPGTSVKLSCKASGYTFTSYGISWVKQRTGQGLEWIGEIYPRSSNTYYNEKFKGKATLTADKSSSTAYMELRSLTSEDSADYFCARANWVGYFDVWGTGTTVTVSS
VL: DIVMTQSHKFMSTSVGDRVTITCKASQDVGTAVAWYQQKPGQSPKLLIYWASTRLTGVPDRFTGSGSGTYFTLTINNVQSEDLADYFCQQYSSYRTFGGGTKLEIK
notes: mouse monoclonal anti-human IL-11 antibody from a hybridoma; also called A9
% positive (anti-FLAG positive control = 100%) [7]: 188%
